Source: patent US20120316071A1 (published 2012)

Tests used:
[1] = target: T1, Recombinant Human DLL4 (R&D Systems Cat#1506-D4/CF) (human, UniProt Q9NR61 27-524); assay: ECL multispot (MSD) binding assay, DLL4 signal over blank spot; Fab concentration not given
T1 construct: Bought recombinant protein; also called delta-like protein 4; rHuman DLL4

[2] = target: T1, Recombinant Human DLL4 (R&D Systems …); assay: ECL multispot (MSD) binding assay, DLL4 spotted on plate, purified Fab in solution; Fab concentration not given
[3] = target: T2, Recombinant Human DLL4 (delta-like protein 4) (human, UniProt Q9NR61 27-524); assay: ELISA, DLL4 coated on plate, 100 nM Fab
T2 construct: Bought recombinant human DLL4 (R&D Systems Cat#1506-D4/CF) coated on the ELISA plate; also called rHuman DLL4; Delta-like ligand 4

B1: Fab VH1-46_IGHD6-6*01_IGHJ1*01 S102A/S103P/S104F/H111F (APFF) & L6_IGKJ1*01 S30C (Fab, V domains shown)
VH: QVQLVQSGAEVKKPGASVKVSCKASGYTFTSYYMHWVRQAPGQGLEWMGIINPSGGSTSYAQKFQGRVTMTRDTSTSTVYMELSSLRSEDTAVYYCAREEYAPFSAEYFQFWGQGTLVTVSS
VL: EIVLTQSPATLSLSPGERATLSCRASQSVCSYLAWYQQKPGQAPRLLIYDASNRATGIPARFSGSGSGTDFTLTISSLEPEDFAVYYCQQRSNWPPWTFGQGTKVEIKR
notes: Fab expressed in E. coli: VH joined to CH1 (Plasmid A, His6 and Flag tags), VL joined to kappa CL (Plasmid C); also called APFF S30C
Signal/Blank [1]: 141 | ECL signal [2]: 129000

B2: Fab VH1-46_IGHD6-6*01_IGHJ1*01 S102A/S103P/S104F/H111F (APFF) & L6_IGKJ1*01 S30D (Fab, V domains shown)
VH: QVQLVQSGAEVKKPGASVKVSCKASGYTFTSYYMHWVRQAPGQGLEWMGIINPSGGSTSYAQKFQGRVTMTRDTSTSTVYMELSSLRSEDTAVYYCAREEYAPFSAEYFQFWGQGTLVTVSS
VL: EIVLTQSPATLSLSPGERATLSCRASQSVDSYLAWYQQKPGQAPRLLIYDASNRATGIPARFSGSGSGTDFTLTISSLEPEDFAVYYCQQRSNWPPWTFGQGTKVEIKR
notes: Fab expressed in E. coli: VH joined to CH1 (Plasmid A, His6 and Flag tags), VL joined to kappa CL (Plasmid C); also called APFF S30D
Signal/Blank [1]: 568 | ECL signal [2]: 225000

B3: Fab VH1-46_IGHD6-6*01_IGHJ1*01 S102A/S103P/S104F/H111F (APFF) & L6_IGKJ1*01 S30T (Fab, V domains shown)
VH: QVQLVQSGAEVKKPGASVKVSCKASGYTFTSYYMHWVRQAPGQGLEWMGIINPSGGSTSYAQKFQGRVTMTRDTSTSTVYMELSSLRSEDTAVYYCAREEYAPFSAEYFQFWGQGTLVTVSS
VL: EIVLTQSPATLSLSPGERATLSCRASQSVTSYLAWYQQKPGQAPRLLIYDASNRATGIPARFSGSGSGTDFTLTISSLEPEDFAVYYCQQRSNWPPWTFGQGTKVEIKR
notes: Fab expressed in E. coli: VH joined to CH1 (Plasmid A, His6 and Flag tags), VL joined to kappa CL (Plasmid C); also called APFF S30T
Signal/Blank [1]: 300 | ECL signal [2]: 122000

B4: Fab VH1-46_IGHD6-6*01_IGHJ1*01 S102A/S103P/S104F/H111F (APFF) & L6_IGKJ1*01 S30G (Fab, V domains shown)
VH: QVQLVQSGAEVKKPGASVKVSCKASGYTFTSYYMHWVRQAPGQGLEWMGIINPSGGSTSYAQKFQGRVTMTRDTSTSTVYMELSSLRSEDTAVYYCAREEYAPFSAEYFQFWGQGTLVTVSS
VL: EIVLTQSPATLSLSPGERATLSCRASQSVGSYLAWYQQKPGQAPRLLIYDASNRATGIPARFSGSGSGTDFTLTISSLEPEDFAVYYCQQRSNWPPWTFGQGTKVEIKR
notes: Fab expressed in E. coli: VH joined to CH1 (Plasmid A, His6 and Flag tags), VL joined to kappa CL (Plasmid C); also called APFF S30G
Signal/Blank [1]: 664 | ECL signal [2]: 180000

B5: Fab VH1-46_IGHD6-6*01_IGHJ1*01 S102A/S103P/S104F/H111F (APFF) & L6_IGKJ1*01 S30Q (Fab, V domains shown)
VH: QVQLVQSGAEVKKPGASVKVSCKASGYTFTSYYMHWVRQAPGQGLEWMGIINPSGGSTSYAQKFQGRVTMTRDTSTSTVYMELSSLRSEDTAVYYCAREEYAPFSAEYFQFWGQGTLVTVSS
VL: EIVLTQSPATLSLSPGERATLSCRASQSVQSYLAWYQQKPGQAPRLLIYDASNRATGIPARFSGSGSGTDFTLTISSLEPEDFAVYYCQQRSNWPPWTFGQGTKVEIKR
notes: Fab expressed in E. coli: VH joined to CH1 (Plasmid A, His6 and Flag tags), VL joined to kappa CL (Plasmid C); also called APFF S30Q
Signal/Blank [1]: 1020 | ECL signal [2]: 203000

B6: Fab VH1-46_IGHD6-6*01_IGHJ1*01 S102A/S103P/S104F/H111F (APFF) & L6_IGKJ1*01 S30R (Fab, V domains shown)
VH: QVQLVQSGAEVKKPGASVKVSCKASGYTFTSYYMHWVRQAPGQGLEWMGIINPSGGSTSYAQKFQGRVTMTRDTSTSTVYMELSSLRSEDTAVYYCAREEYAPFSAEYFQFWGQGTLVTVSS
VL: EIVLTQSPATLSLSPGERATLSCRASQSVRSYLAWYQQKPGQAPRLLIYDASNRATGIPARFSGSGSGTDFTLTISSLEPEDFAVYYCQQRSNWPPWTFGQGTKVEIKR
notes: Fab expressed in E. coli: VH joined to CH1 (Plasmid A, His6 and Flag tags), VL joined to kappa CL (Plasmid C); also called APFF S30R
Signal/Blank [1]: 350 | ECL signal [2]: 146000

B7: Fab VH1-46_IGHD6-6*01_IGHJ1*01 S102A/S103P/S104F/H111F (APFF) & L6_IGKJ1*01 S30L (Fab, V domains shown)
VH: QVQLVQSGAEVKKPGASVKVSCKASGYTFTSYYMHWVRQAPGQGLEWMGIINPSGGSTSYAQKFQGRVTMTRDTSTSTVYMELSSLRSEDTAVYYCAREEYAPFSAEYFQFWGQGTLVTVSS
VL: EIVLTQSPATLSLSPGERATLSCRASQSVLSYLAWYQQKPGQAPRLLIYDASNRATGIPARFSGSGSGTDFTLTISSLEPEDFAVYYCQQRSNWPPWTFGQGTKVEIKR
notes: Fab expressed in E. coli: VH joined to CH1 (Plasmid A, His6 and Flag tags), VL joined to kappa CL (Plasmid C); also called APFF S30L
Signal/Blank [1]: 524 | ECL signal [2]: 199000

B8: Fab VH1-46_IGHD6-6*01_IGHJ1*01 S102A/S103P/S104F/H111F (APFF) & L6_IGKJ1*01 S30P (Fab, V domains shown)
VH: QVQLVQSGAEVKKPGASVKVSCKASGYTFTSYYMHWVRQAPGQGLEWMGIINPSGGSTSYAQKFQGRVTMTRDTSTSTVYMELSSLRSEDTAVYYCAREEYAPFSAEYFQFWGQGTLVTVSS
VL: EIVLTQSPATLSLSPGERATLSCRASQSVPSYLAWYQQKPGQAPRLLIYDASNRATGIPARFSGSGSGTDFTLTISSLEPEDFAVYYCQQRSNWPPWTFGQGTKVEIKR
notes: Fab expressed in E. coli: VH joined to CH1 (Plasmid A, His6 and Flag tags), VL joined to kappa CL (Plasmid C); also called APFF S30P
Signal/Blank [1]: 4.4 | ECL signal [2]: 1140

B9: Fab VH1-46_IGHD6-6*01_IGHJ1*01 S102A/S103P/S104F/H111F (APFF) & L6_IGKJ1*01 S30W (Fab, V domains shown)
VH: QVQLVQSGAEVKKPGASVKVSCKASGYTFTSYYMHWVRQAPGQGLEWMGIINPSGGSTSYAQKFQGRVTMTRDTSTSTVYMELSSLRSEDTAVYYCAREEYAPFSAEYFQFWGQGTLVTVSS
VL: EIVLTQSPATLSLSPGERATLSCRASQSVWSYLAWYQQKPGQAPRLLIYDASNRATGIPARFSGSGSGTDFTLTISSLEPEDFAVYYCQQRSNWPPWTFGQGTKVEIKR
notes: Fab expressed in E. coli: VH joined to CH1 (Plasmid A, His6 and Flag tags), VL joined to kappa CL (Plasmid C); also called APFF S30W
Signal/Blank [1]: 660 | ECL signal [2]: 191000

B10: Fab VH5-51_IGHD5-18*01>3_IGHJ4*01 G100K/G104T G24T/S28R/G35V (H:KT TRV) & V3-4_IGLJ1*01 V91L/S96P S57D (Fab, V domains shown)
VH: EVQLVQSGAEVKKPGESLKISCKTSGYRFTSYWIVWVRQMPGKGLEWMGIIYPGDSDTRYSPSFQGQVTISADKSISTAYLQWSSLKASDTAMYYCARRKYSYTYDYFDYWGQGTLVTVSS
VL: QTVVTQEPSFSVSPGGTVTLTCGLSSGSVSTSYYPSWYQQTPGQAPRTLIYSTNTRDSGVPDRFSGSILGNKAALTITGAQADDESDYYCLLYMGPGISYVFGTGTKVTVL
notes: Fab made in E. coli: VH in plasmid A (CH1, His6 and Flag tags), VL in plasmid E (lambda CL); also called H:KT TRV & L:LP S57D
ELISA Signal-blank (100 nM Fab) [3]: 0.17
